Measured values as given in US12630600B2 (MEDIMMUNE LIMITED, priority 2022, dated 2026).
Starred links: 1 amine or outer side, 2 acyl side, 3 side chain; linkers in the order of their positions; H or OH if unused. Non-standard residues stand in square brackets, D forms with d. Groups on a side chain read outwards from the residue. No end group written: not given here. *: point of attachment. C20 diacid = O=C(O)CCCCCCCCCCCCCCCCCCC(=O)*; C18 diacid = O=C(O)CCCCCCCCCCCCCCCCC(=O)*; γGlu = O=C(O)[C@H](CCC(=O)[*:2])N[*:1]; αMeF = C[C@](N)(Cc1ccccc1)C(=O)O; AEEA = NCCOCCOCC(=O)O; Aib = CC(C)(N)C(=O)O

B1: Peptide 412 (peptide)
peptide: H[Aib]QGTFTSDVSK[αMeF]LDTK([AEEA-AEEA-γGlu-C20 diacid])RAQDFVAWLEAGG-OH
modifications: N-terminus assumed
SMILES: CC(C)C[C@H](NC(=O)[C@H](Cc1c[nH]c2ccccc12)NC(=O)[C@H](C)NC(=O)[C@@H](NC(=O)[C@H](Cc1ccccc1)NC(=O)[C@H](CC(=O)O)NC(=O)[C@H](CCC(N)=O)NC(=O)[C@H](C)NC(=O)[C@H](CCCNC(=N)N)NC(=O)[C@H](CCCCNC(=O)COCCOCCNC(=O)COCCOCCNC(=O)CC[C@H](NC(=O)CCCCCCCCCCCCCCCCCCC(=O)O)C(=O)O)NC(=O)[C@@H](NC(=O)[C@H](CC(=O)O)NC(=O)[C@H](CC(C)C)NC(=O)[C@](C)(Cc1ccccc1)NC(=O)[C@H](CCCCN)NC(=O)[C@H](CO)NC(=O)[C@@H](NC(=O)[C@H](CC(=O)O)NC(=O)[C@H](CO)NC(=O)[C@@H](NC(=O)[C@H](Cc1ccccc1)NC(=O)[C@@H](NC(=O)CNC(=O)[C@H](CCC(N)=O)NC(=O)C(C)(C)NC(=O)[C@@H](N)Cc1c[nH]cn1)[C@@H](C)O)[C@@H](C)O)C(C)C)[C@@H](C)O)C(C)C)C(=O)N[C@@H](CCC(=O)O)C(=O)N[C@@H](C)C(=O)NCC(=O)NCC(=O)O
B2: Peptide 409 (peptide)
peptide: H[Aib]QGTFTSDVSK[αMeF]LDTK([AEEA-AEEA-γGlu-C18 diacid])RARDFVAWLL[Aib]TE-OH
modifications: N-terminus assumed
SMILES: CC(C)C[C@H](NC(=O)[C@H](Cc1c[nH]c2ccccc12)NC(=O)[C@H](C)NC(=O)[C@@H](NC(=O)[C@H](Cc1ccccc1)NC(=O)[C@H](CC(=O)O)NC(=O)[C@H](CCCNC(=N)N)NC(=O)[C@H](C)NC(=O)[C@H](CCCNC(=N)N)NC(=O)[C@H](CCCCNC(=O)COCCOCCNC(=O)COCCOCCNC(=O)CC[C@H](NC(=O)CCCCCCCCCCCCCCCCC(=O)O)C(=O)O)NC(=O)[C@@H](NC(=O)[C@H](CC(=O)O)NC(=O)[C@H](CC(C)C)NC(=O)[C@](C)(Cc1ccccc1)NC(=O)[C@H](CCCCN)NC(=O)[C@H](CO)NC(=O)[C@@H](NC(=O)[C@H](CC(=O)O)NC(=O)[C@H](CO)NC(=O)[C@@H](NC(=O)[C@H](Cc1ccccc1)NC(=O)[C@@H](NC(=O)CNC(=O)[C@H](CCC(N)=O)NC(=O)C(C)(C)NC(=O)[C@@H](N)Cc1c[nH]cn1)[C@@H](C)O)[C@@H](C)O)C(C)C)[C@@H](C)O)C(C)C)C(=O)N[C@@H](CC(C)C)C(=O)NC(C)(C)C(=O)N[C@H](C(=O)N[C@@H](CCC(=O)O)C(=O)O)[C@@H](C)O
B3: Peptide 411 (peptide)
peptide: H[Aib]QGTFTSDVSK[αMeF]LDTK([AEEA-AEEA-γGlu-C18 diacid])RAQDFVAWLEAGG-OH
modifications: N-terminus assumed
SMILES: CC(C)C[C@H](NC(=O)[C@H](Cc1c[nH]c2ccccc12)NC(=O)[C@H](C)NC(=O)[C@@H](NC(=O)[C@H](Cc1ccccc1)NC(=O)[C@H](CC(=O)O)NC(=O)[C@H](CCC(N)=O)NC(=O)[C@H](C)NC(=O)[C@H](CCCNC(=N)N)NC(=O)[C@H](CCCCNC(=O)COCCOCCNC(=O)COCCOCCNC(=O)CC[C@H](NC(=O)CCCCCCCCCCCCCCCCC(=O)O)C(=O)O)NC(=O)[C@@H](NC(=O)[C@H](CC(=O)O)NC(=O)[C@H](CC(C)C)NC(=O)[C@](C)(Cc1ccccc1)NC(=O)[C@H](CCCCN)NC(=O)[C@H](CO)NC(=O)[C@@H](NC(=O)[C@H](CC(=O)O)NC(=O)[C@H](CO)NC(=O)[C@@H](NC(=O)[C@H](Cc1ccccc1)NC(=O)[C@@H](NC(=O)CNC(=O)[C@H](CCC(N)=O)NC(=O)C(C)(C)NC(=O)[C@@H](N)Cc1c[nH]cn1)[C@@H](C)O)[C@@H](C)O)C(C)C)[C@@H](C)O)C(C)C)C(=O)N[C@@H](CCC(=O)O)C(=O)N[C@@H](C)C(=O)NCC(=O)NCC(=O)O
B4: Peptide 414 (peptide)
peptide: H[Aib]QGTFTSDVSK[αMeF]LDKK([AEEA-AEEA-γGlu-C18 diacid])RARDFVRWLL[Aib]E-OH
modifications: N-terminus assumed
SMILES: CC(C)C[C@H](NC(=O)[C@H](Cc1c[nH]c2ccccc12)NC(=O)[C@H](CCCNC(=N)N)NC(=O)[C@@H](NC(=O)[C@H](Cc1ccccc1)NC(=O)[C@H](CC(=O)O)NC(=O)[C@H](CCCNC(=N)N)NC(=O)[C@H](C)NC(=O)[C@H](CCCNC(=N)N)NC(=O)[C@H](CCCCNC(=O)COCCOCCNC(=O)COCCOCCNC(=O)CC[C@H](NC(=O)CCCCCCCCCCCCCCCCC(=O)O)C(=O)O)NC(=O)[C@H](CCCCN)NC(=O)[C@H](CC(=O)O)NC(=O)[C@H](CC(C)C)NC(=O)[C@](C)(Cc1ccccc1)NC(=O)[C@H](CCCCN)NC(=O)[C@H](CO)NC(=O)[C@@H](NC(=O)[C@H](CC(=O)O)NC(=O)[C@H](CO)NC(=O)[C@@H](NC(=O)[C@H](Cc1ccccc1)NC(=O)[C@@H](NC(=O)CNC(=O)[C@H](CCC(N)=O)NC(=O)C(C)(C)NC(=O)[C@@H](N)Cc1c[nH]cn1)[C@@H](C)O)[C@@H](C)O)C(C)C)C(C)C)C(=O)N[C@@H](CC(C)C)C(=O)NC(C)(C)C(=O)N[C@@H](CCC(=O)O)C(=O)O
B5: Peptide 407 (peptide)
peptide: H[Aib]QGTFTSDVSK[αMeF]LDTK([AEEA-AEEA-γGlu-C20 diacid])RAQDFVRWLEA[Aib]G-OH
modifications: N-terminus assumed
SMILES: CC(C)C[C@H](NC(=O)[C@H](Cc1c[nH]c2ccccc12)NC(=O)[C@H](CCCNC(=N)N)NC(=O)[C@@H](NC(=O)[C@H](Cc1ccccc1)NC(=O)[C@H](CC(=O)O)NC(=O)[C@H](CCC(N)=O)NC(=O)[C@H](C)NC(=O)[C@H](CCCNC(=N)N)NC(=O)[C@H](CCCCNC(=O)COCCOCCNC(=O)COCCOCCNC(=O)CC[C@H](NC(=O)CCCCCCCCCCCCCCCCCCC(=O)O)C(=O)O)NC(=O)[C@@H](NC(=O)[C@H](CC(=O)O)NC(=O)[C@H](CC(C)C)NC(=O)[C@](C)(Cc1ccccc1)NC(=O)[C@H](CCCCN)NC(=O)[C@H](CO)NC(=O)[C@@H](NC(=O)[C@H](CC(=O)O)NC(=O)[C@H](CO)NC(=O)[C@@H](NC(=O)[C@H](Cc1ccccc1)NC(=O)[C@@H](NC(=O)CNC(=O)[C@H](CCC(N)=O)NC(=O)C(C)(C)NC(=O)[C@@H](N)Cc1c[nH]cn1)[C@@H](C)O)[C@@H](C)O)C(C)C)[C@@H](C)O)C(C)C)C(=O)N[C@@H](CCC(=O)O)C(=O)N[C@@H](C)C(=O)NC(C)(C)C(=O)NCC(=O)O
B6: Peptide 408 (peptide)
peptide: H[Aib]QGTFTSDVSK[αMeF]LDTK([AEEA-AEEA-γGlu-γGlu-C20 diacid])RAQDFVRWLEA[Aib]G-OH
modifications: N-terminus assumed
SMILES: CC(C)C[C@H](NC(=O)[C@H](Cc1c[nH]c2ccccc12)NC(=O)[C@H](CCCNC(=N)N)NC(=O)[C@@H](NC(=O)[C@H](Cc1ccccc1)NC(=O)[C@H](CC(=O)O)NC(=O)[C@H](CCC(N)=O)NC(=O)[C@H](C)NC(=O)[C@H](CCCNC(=N)N)NC(=O)[C@H](CCCCNC(=O)COCCOCCNC(=O)COCCOCCNC(=O)CC[C@H](NC(=O)CC[C@H](NC(=O)CCCCCCCCCCCCCCCCCCC(=O)O)C(=O)O)C(=O)O)NC(=O)[C@@H](NC(=O)[C@H](CC(=O)O)NC(=O)[C@H](CC(C)C)NC(=O)[C@](C)(Cc1ccccc1)NC(=O)[C@H](CCCCN)NC(=O)[C@H](CO)NC(=O)[C@@H](NC(=O)[C@H](CC(=O)O)NC(=O)[C@H](CO)NC(=O)[C@@H](NC(=O)[C@H](Cc1ccccc1)NC(=O)[C@@H](NC(=O)CNC(=O)[C@H](CCC(N)=O)NC(=O)C(C)(C)NC(=O)[C@@H](N)Cc1c[nH]cn1)[C@@H](C)O)[C@@H](C)O)C(C)C)[C@@H](C)O)C(C)C)C(=O)N[C@@H](CCC(=O)O)C(=O)N[C@@H](C)C(=O)NC(C)(C)C(=O)NCC(=O)O
B7: Peptide 410 (peptide)
peptide: H[Aib]QGTFTSDVSK[αMeF]LDTK([AEEA-AEEA-γGlu-C20 diacid])RARDFVAWLL[Aib]TE-OH
modifications: N-terminus assumed
SMILES: CC(C)C[C@H](NC(=O)[C@H](Cc1c[nH]c2ccccc12)NC(=O)[C@H](C)NC(=O)[C@@H](NC(=O)[C@H](Cc1ccccc1)NC(=O)[C@H](CC(=O)O)NC(=O)[C@H](CCCNC(=N)N)NC(=O)[C@H](C)NC(=O)[C@H](CCCNC(=N)N)NC(=O)[C@H](CCCCNC(=O)COCCOCCNC(=O)COCCOCCNC(=O)CC[C@H](NC(=O)CCCCCCCCCCCCCCCCCCC(=O)O)C(=O)O)NC(=O)[C@@H](NC(=O)[C@H](CC(=O)O)NC(=O)[C@H](CC(C)C)NC(=O)[C@](C)(Cc1ccccc1)NC(=O)[C@H](CCCCN)NC(=O)[C@H](CO)NC(=O)[C@@H](NC(=O)[C@H](CC(=O)O)NC(=O)[C@H](CO)NC(=O)[C@@H](NC(=O)[C@H](Cc1ccccc1)NC(=O)[C@@H](NC(=O)CNC(=O)[C@H](CCC(N)=O)NC(=O)C(C)(C)NC(=O)[C@@H](N)Cc1c[nH]cn1)[C@@H](C)O)[C@@H](C)O)C(C)C)[C@@H](C)O)C(C)C)C(=O)N[C@@H](CC(C)C)C(=O)NC(C)(C)C(=O)N[C@H](C(=O)N[C@@H](CCC(=O)O)C(=O)O)[C@@H](C)O

Biological target: human glucagon receptor (human, UniProt P47871)
Assay: cell-based or functional assay

cAMP production EC50 [nM] | Binder
0.397 | B1
0.203 | B2
0.378 | B3
1.02 | H[Aib]QGTFTSDVSK[αMeF]LDTK([AEEA-AEEA-γGlu-γGlu-C20 diacid])RAQDFVAWLEAGG-OH [Peptide 413]
0.0269 | B4
0.462 | B5
0.828 | B6
0.455 | B7

Biological target: human GLP-1 receptor (human, UniProt P43220)
Assay: cell-based or functional assay

cAMP production EC50 [nM] | Binder
0.186 | B1
0.0227 | B2
0.0981 | B3
0.406 | H[Aib]QGTFTSDVSK[αMeF]LDTK([AEEA-AEEA-γGlu-γGlu-C20 diacid])RAQDFVAWLEAGG-OH [Peptide 413]
0.0323 | B4
0.209 | B5
0.37 | B6
0.078 | B7
